Source: FireProtDB (doi:10.1074/jbc.m005861200)

B1: Cytochrome c-551, P00099 (parent)
chain: MKPYALLSLLATGTLLAQGAWAEDPEVLFKNKGCVACHAIDTKMVGPAYKDVAAKFAGQAGAEAELAQRIKNGSQGVWGPIPMPPNAVSDDEAQTLAKWVLSQK

Variants of: B1
Conditions: Pseudomonas aeruginosa (strain ATCC 15692 / DSM 22644 / CIP 104116 / JCM 14847 / LMG 12228 / 1C / PRS 101 / PAO1); pH 5; 25 °C; GdnHCl; DSC; Unknown; reversible: yes; structure 451C; whole UniProt chain shown

| Variant | denaturant midpoint (higher = more stable) |
| --- | --- |
| F29A V35M F56Y E65Y V100I | 4.39 M |

Same assay, conditions: Pseudomonas aeruginosa (strain ATCC 15692 / DSM 22644 / CIP 104116 / JCM 14847 / LMG 12228 / 1C / PRS 101 / PAO1); pH 5; 47.3 °C; Thermal; DSC; Unknown; reversible: yes; structure 451C; whole UniProt chain shown

| Variant | Tm | change of melting temperature, mutant - wild type (higher = more stable) | heat capacity change of unfolding |
| --- | --- | --- | --- |
| F29A V35M F56Y E65Y V100I | 80.2 °C | 32.9 °C | 1.07 kcal/mol/K |

Same assay, conditions: Pseudomonas aeruginosa (strain ATCC 15692 / DSM 22644 / CIP 104116 / JCM 14847 / LMG 12228 / 1C / PRS 101 / PAO1); pH 5; Thermal; DSC; Unknown; reversible: yes; structure 451C; whole UniProt chain shown

| Variant | Tm | change of melting temperature, mutant - wild type (higher = more stable) | heat capacity change of unfolding | unfolding enthalpy (calorimetric) |
| --- | --- | --- | --- | --- |
| F29A V35M F56Y E65Y V100I | 80.2 °C | 32.9 °C | 1.07 kcal/mol/K | 46 kcal/mol |
